For one assay, the target named is T1, Human B7-H3 (human, UniProt Q5ZPR3 29-461, limits assumed).
T1 construct: also called human B7-H3 (SPR antigen)
T1 sequence: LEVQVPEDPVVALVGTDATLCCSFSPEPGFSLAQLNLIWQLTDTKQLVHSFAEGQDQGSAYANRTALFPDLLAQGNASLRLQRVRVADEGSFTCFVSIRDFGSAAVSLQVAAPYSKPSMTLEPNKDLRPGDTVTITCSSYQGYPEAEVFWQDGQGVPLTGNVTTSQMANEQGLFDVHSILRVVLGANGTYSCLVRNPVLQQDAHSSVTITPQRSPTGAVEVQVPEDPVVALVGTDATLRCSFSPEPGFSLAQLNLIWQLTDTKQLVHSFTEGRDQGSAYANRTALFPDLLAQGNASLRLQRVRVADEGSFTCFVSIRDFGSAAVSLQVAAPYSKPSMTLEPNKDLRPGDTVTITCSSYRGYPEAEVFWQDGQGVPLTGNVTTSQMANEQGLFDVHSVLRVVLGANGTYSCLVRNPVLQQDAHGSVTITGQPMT
The assay is described as follows: Surface Plasmon Resonance.

Another assay has as its target T2, Mouse B7-H3 (mouse, UniProt Q8VE98 29-244, limits assumed).
T2 construct: The construct used in SPR is not described; also called mouse B7-H3 (SPR antigen)
T2 sequence (looked up): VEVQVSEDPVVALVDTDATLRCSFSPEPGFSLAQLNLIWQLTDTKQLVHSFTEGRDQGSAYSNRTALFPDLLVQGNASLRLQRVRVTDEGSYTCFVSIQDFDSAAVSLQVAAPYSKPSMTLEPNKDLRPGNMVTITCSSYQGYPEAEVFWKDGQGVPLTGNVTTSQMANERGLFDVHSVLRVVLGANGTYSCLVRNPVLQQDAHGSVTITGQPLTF
The assay is described as follows: Surface Plasmon Resonance.

B1: monoclonal antibody 12B4 (antibody, IgG2b, V domains shown)
VH: QVQLQQPGAELVKPGASVKLSCKASGYTFTSYWMHWVKQRPGQGLEWIGMIHPNSGSTNYNEKFKSKATLTVDKSSSTAYMQLSSLTSEDSAVYYCARYYYGSSYAMDYWGQGTSVTVS
VL: QIVLTQSPAIMSASPGEKVTITCSASSSVSYMHWFQQKPGTSPKLWIYSTSNLASGVPARFSGSGSGTSYSLTISRMEAEDAATYYCQQRSSYPYTFGGGTKLEIKR
notes: Residue limits come from CLM-00006; also called mAb 12B4
As usually defined, the Kd is the free concentration of one partner at which half of the binding sites on the other are occupied at equilibrium, for simple one-to-one binding. As a reminder, the koff is the first-order rate constant of dissociation. The low end stands for slow dissociation, the high end for fast dissociation. Usually kon stands for a measure of how fast the partners come together. Low readings indicate slow association, high ones fast association. Regarding B1, in the assay with Human B7-H3, the Kd stood at 8.23 nM, the koff amounted to 0.00509 s⁻¹ and the kon stood at 618000 M⁻¹ s⁻¹. In the assay with Mouse B7-H3, this molecule returned an equilibrium dissociation constant (Kd) of 15.4 nM, a koff of 0.0184 s⁻¹ and a kon of 1.19e+06 M⁻¹ s⁻¹.

B2: monoclonal antibody 8B12 (antibody, IgG3, V domains shown)
VH: QVQLQQPGAELVKPGASVKMSCKASGYTFTSYWITWVKQRPGQGLEWIGDIYPGSGSTNYNEKFKSKATLTVDTSSSTAYMQLSSLTSEDSAVYYCARGGTRFSPFAYWGQGTLVTVSA
VL: DVLMTQTPLSLPVSLGDQASISCRSSQSIVHSNGNTYLEWYLQKPGQSPKLLIYKVSNRFSGVPDRFSGSGSGTDFTLKISRVEAEDLGVYYCFQGSHVPWTFGGGTKLEIKR
notes: Residue limits come from CLM-00006; also called mAb 8B12
In the assay with Human B7-H3, B2 came in with a dissociation constant (Kd) of 0.3 nM, a koff of 0.000459 s⁻¹ and an on-rate constant (kon) of 1.51e+06 M⁻¹ s⁻¹. In addition, in the assay with Mouse B7-H3, binding was characterised by a dissociation constant (Kd) of 4.01 nM, the off-rate constant (koff) worked out at 0.00237 s⁻¹ and the kon came to 592000 M⁻¹ s⁻¹.

The record behind these values is patent US20220010018A1 (ALBERT EINSTEIN COLLEGE OF MEDICINE, published 2022).
